Data: patent US20260227386A1, “DIAGNOSIS AND TREATMENT OF NEUROGENIC HETEROTOPIC OSSIFICATION” (SERVIZO GALEGO DE SAÚDE, priority 2023, published 2026)

Key:
SaOS2 cells [1] = experiment: Inflammatory stimuli (IL1β, LPS) on SaOS2 differentiated with ACM, RT-PCR; assay type: cell-based, Human
Method: To determine the effect of an external inflammatory factor on the differentiation process of SaOS2 stimulated with ACM, SaOS2 cells were seeded and stimulated with the ACM in the presence and absence of 0.1 ng/ml of IL1 and 100 ng/mL of lipopolysaccharide (LPS). To do this, once the SaOS2 completed the 3-day differentiation with the ACM, these cells were treated with the inflammatory stimuli and were differentiated for a further 48h.
(§1) RNA was extracted using TriReagent® and the RNA extraction Kit E.Z.N.A. Total RNA Kit I® (Omega Bio-Tek Inc., Norcross, GA, USA) following the manufacturer's instructions. The gene expression of bone related markers, inflammatory and adipogenic markers were measured using iTaq Universal SYBR Green Supermix (BioRad Laboratories, Hercules, CA, USA). Relative quantitation was performed using the ΔΔCt Comparative Method. Results are expressed as 2^−ΔΔCt versus unstimulated control or DM.

ATDC5 cells = experiment: ATDC5 differentiation into chondrocytes, gene expression by RT-PCR; assay type: cell-based; details: TGFβi 3 μg/mL
Method: (§2) SaOS2 were differentiated for 3 days, C3H10T1/2 for 7 days, and ATDC5 for 14 days. In order to induce cell differentiation, the media were changed three times a week in SaOS2 and ATDC5 cells, starting the process 24 h post-culture. In these cells, the same medium was used in all the changes made. Regarding the C3H10T1/2, two media were used to differentiate them into adipocytes: the induction medium which was changed after 6 h post-culture, and the maintenance medium which replaced the induction medium after 4 days. after culture. All cells were seeded in 24-well plates (Thermo Fisher Scientific, Waltham, MA, USA).
(§3) SaOS2, C3H10T1/2, and ATDC5 cells were differentiated in the presence or absence of 3 μg/mL of human recombinant protein transforming growth factor beta-induced (TGFβi), similar concentration to TGFβi-blood levels. It should be noted that this protein was added newly in every medium change corresponding to the differentiation of each cell line.
as §1

C3H10T1/2 cells [2] = experiment: RNA quantification and cell counting; assay type: cell-based; details: C3H10T1/2 differentiated to adipocytes seven days, TGFβi 3 μg/mL
Text: The RNA of the differentiated C3H10T1/2 was quantified using a NanoDrop One® spectrophotometer (Thermo Fisher Scientific, Wlatham, MA, USA).
Moreover, microscopic photos of the different conditions were taken. Subsequently, the photograph was divided into 3 rectangles of equal size and positioned in the same place in the images. The live cells were counted, and the number of cells was compared with the rest of the samples.

SaOS2 cells [3] = experiment: SaOS2 differentiation into osteoblasts, gene expression by RT-PCR; assay type: cell-based, Human; details: SaOS2 differentiated into osteoblasts three days, presence or absence of stimulus (ACM; TGFβi 3 μg/mL)
Method: as §2
After 24 h SaOS2 post-culture, the medium was changed to ACM, and they were differentiated for 3 days.
as §3, §1

C3H10T1/2 cells [4] = experiment: C3H10T1/2 differentiation into adipocytes, gene expression by RT-PCR; assay type: cell-based; details: C3H10T1/2 differentiated into adipocytes seven days
Method: as §2
Regarding the C3H10T1/2, due to the difference in the composition of their differentiation media and that of the SaOS2, we proceeded with the concentration and purification of the 2 mL DM and ACM proteins, using the filter units 3 kDa Amicon® Ultra-0.5 mL Centrifugal Filters Ultracel 3K (Millipore, Burlington, Massachusetts, USA) following the supplier's instructions. Once the process was finished, the pellets were resuspended in the differentiation medium corresponding to the cell line, filtered through a 0.2 μm filter (Thermo Fisher Scientific, Wlatham, MA, USA), and cells were differentiated for 7 days as was previously described. For cell differentiation stimulated with the NCM, NCM was concentrated using Amicon® Ultra-0.5 mL Centrifugal Filters Ultracel 3K 3 kDa centrifugal filter units, according to the supplier's specifications. Then, they were resuspended with the C3H10T1/2 differentiation medium and filtered through a 0.2 μm filter. Finally, C3H10T1/2 cells were differentiated into adipocytes in the presence and absence of NCM for 7 days, as previously described.
as §3, §1

[5] = SaOS2 differentiated three days with ACM, then IL1β 0.1 ng/mL for 48h
[6] = ATDC5 differentiated into chondrocytes three, seven, fourteen days
[7] = presence or absence of stimulus (ACM; NCM; TGFβi 3 μg/mL)

## lipopolysaccharide [LPS]
SaOS2 cells [1]; SaOS2 differentiated three days with or without ACM, then LPS 100 ng/ml for 48h
  inflammatory profile or bone metabolism: did not alter

## IL1β: inflammatory stimulus, 0.1 ng/ml
SaOS2 cells [1]; [5]
  BMP2 gene expression induced by ACM: increased
  CCL2 gene expression: increased
  IL6 gene expression: increased
  LIF gene expression induced by ACM: increased
  SPP1 gene expression: did not modify
  VCAM gene expression: increased

B1: TGFβi: human recombinant protein transforming growth factor beta-induced, used at 3 μg/mL (protein)
chain: GPAKSPYQLVLQHSRLRGRQHGPNVCAVQKVIGTNRKYFTNCKQWYQRKICGKSTVISYECCPGYEKVPGEKGCPAALPLSNLYETLGVVGSTTTQLYTDRTEKLRPEMEGPGSFTIFAPSNEAWASLPAEVLDSLVSNVNIELLNALRYHMVGRRVLTDELKHGMTLTSMYQNSNIQIHHYPNGIVTVNCARLLKADHHATNGVVHLIDKVISTITNNIQQIIEIEDTFETLRAAVAASGLNTMLEGNGQYTLLAPTNEAFEKIPSETLNRILGDPEALRDLLNNHILKSAMCAEAIVAGLSVETLEGTTLEVGCSGDMLTINGKAIISNKDILATNGVIHYIDELLIPDSAKTLFELAAESDVSTAIDLFRQAGLGNHLSGSERLTLLAPLNSVFKDGTPPIDAHTRNLLRNHIIKDQLASKYLYHGQTLETLGGKKLRVFVYRNSLCIENSCIAAHDKRGRYGTLFTMDRVLTPPMGTVMDVLKGDNRFSMLVAAIQSAGLTETLNREGVYTVFAPTNEAFRALPPRERSRLLGDAKELANILKYHIGDEILVSGGIGALVRLKSLQGDKLEVSLKNNVVSVNKEPVAEPDIMATNGVVHVITNVLQPPANRPQERGDELADSALEIFKQASAFSRASQRSVRLAPVYQKLLERMKH
ATDC5 cells; [6]
  COL2A1 gene expression: decrease
  COLX gene expression: decrease
  SOX9 gene expression: decrease
ATDC5 cells; early stages of ATDC5 differentiation
  SPP1 expression: increased
C3H10T1/2 cells [2]
  cell proliferation: amount of RNA: increase
  cell proliferation: number of cells: increase
C3H10T1/2 cells [2]; listed as TGFBi
  cell proliferation: amount of RNA: differences on cell proliferation were observed
  cell proliferation: number of cells: differences on cell proliferation were observed
SaOS2 cells [3]
  AXIN2 gene expression: did not modify
  BMP2 gene expression: increased
  BMP4 gene expression: did not modify
  CCL2 gene expression: increased
  CD44 gene expression: did not modify
  GPNMB gene expression: did not modify
  LIF gene expression: did not modify
  OPG gene expression: did not modify
  PDGFRβ gene expression: did not modify
  PDGFβ gene expression: did not modify
  RANKL gene expression: did not modify
  RANKL/OPG ratio: did not modify
  RUNX2 gene expression: did not modify
  SPP1 gene expression: increased
  TGFβi gene expression: increased
  VCAM gene expression: increased
SaOS2 cells [3]; listed as TGFBi recombinant
  BMP2 gene expression: partial recapitulation
  CCL2 gene expression: partial recapitulation
  SPP1 gene expression: partial recapitulation
  VCAM gene expression: partial recapitulation
C3H10T1/2 cells [4]; [7]
  ADIPOQ gene expression: reduced
  AXIN2 gene expression: no modifications
  CCL2 gene expression: no modifications
  CD44 gene expression: increase
  FABP4 gene expression: reduced
  GPNMB gene expression: no modifications
  IL6 gene expression: no modifications
  PLIN2 gene expression: reduced
  PPARG gene expression: reduction was statistically significant
  RUNX2 gene expression: increase
  SPP1 gene expression: increase
  VCAM gene expression: increase
C3H10T1/2 cells [4]; presence or absence of stimulus (ACM; NCM; TGFβi 3 μg/mL), listed as TGFBi
  PPARG gene expression: significantly decreased
C3H10T1/2 cells [4]; presence or absence of stimulus (ACM; TGFβi 3 μg/mL)
  TGFβi gene expression: increase
